Biological target: Neisseria gonorrhoeae MtrE outer membrane channel (Neisseria gonorrhoeae) (UniProt Q51006)
Test: crystal structure; sitting-drop vapor diffusion, 20% PEG 400, 0.2 M sodium acetate pH 4.6, 0.25 M MgSO4, 2% OG, 0.05% DDM; space group P6(3)22, one protomer per asymmetric unit; 3.29 Å

For “Neisseria gonorrhoeae MtrE outer membrane channel (from UniProt Q51006 1-467) (natural protein)”, the stoichiometry N was 3.
